This is an account of results in patent US20160264674A1 (ADURO BIOTECH HOLDINGS EUROPE B V, published 2016).

Assay [1] concerns the target T1, FLAG-tagged human APRIL (human, UniProt O75888 105-250, limits assumed).
T1 construct: also called FLAG-tagged APRIL; FLAG-APRIL; not shown: FLAG tag
T1 sequence (looked up): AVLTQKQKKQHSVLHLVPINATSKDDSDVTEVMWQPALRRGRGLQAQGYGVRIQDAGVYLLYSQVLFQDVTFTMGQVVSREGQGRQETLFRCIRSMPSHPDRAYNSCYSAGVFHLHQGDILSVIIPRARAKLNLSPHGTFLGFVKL
Put plainly: FLAG-APRIL ELISA after 10 min at 65 °C, antibody at 1 µg/ml. How it is done:
(§1) The plasmids encoding the VH and VL constructs were mixed in a 1:3 ratio (4 μg in total) and transiently expressed by transfection into HEK293T human embryonic kidney cells (HEK293T/17, ATCC-CRL-11268), using Lipofectamine 2000 transfection reagent (Invitrogen) following the manufacturer's instructions. Cell supernatants were harvested after 5 days and tested for expression of antibody and binding to APRIL using an enzyme-linked immuno assay (ELISA). In these ELISAs, all incubation steps were followed by a wash step with PBST (PBS with 0.01% Tween 20). Maxisorb 96-wells plates (Nunc) were coated with 0.5 μg/ml anti-FLAG (Sigma) or anti-IgG4 (Jackson laboratories) and incubated overnight at 4° C. Subsequently the anti-FLAG coated 96-wells plates were incubated with FLAG-tagged human APRIL for 1 hour at room temperature. Next, supernatants and dilutions thereof were incubated for 1 hour, which was followed by an incubation of 1 hour with mouse anti-human IgG HRP-conjugate (Southern Biotechnology).
(§2) To determine the effect of humanization on the stability of the antibodies, humanized antibodies were exposed to a range of temperatures for 10 minutes. Purified antibodies were diluted to 3.16 μg/ml and dilutions thereof in PBS. Next, these solutions were exposed to 65° C. or 70° C. and residual binding after heat treatment of the antibodies was measured using the FLAG-tagged APRIL ELISA assay as described before (see Table 6).
(§3) In addition, the stability of the substituted humanized antibodies was improved as determined using thermostability studies as described in Example 3 (see Table 9).

Assay [2] deals with T1, FLAG-tagged human APRIL. Put plainly: FLAG-APRIL ELISA after 10 min at 70 °C, antibody at 1 µg/ml.
Assay [3] deals with T1, FLAG-tagged human APRIL. In words: FLAG-APRIL ELISA after 10 min at 65 °C, antibody at 3.16 µg/ml. How it is done:
as §1, §2, §3

Assay [4] addresses T1, FLAG-tagged human APRIL. In words: FLAG-APRIL ELISA after 10 min at 70 °C, antibody at 3.16 µg/ml.
Assay [5] concerns the target T1, FLAG-tagged human APRIL. Put plainly: FLAG-APRIL ELISA after 10 min at 65 °C, antibody at 0.316 µg/ml. How it is done: as §1, §2, §3
The target of assay [6] is T1, FLAG-tagged human APRIL. Put plainly: FLAG-APRIL ELISA after 10 min at 70 °C, antibody at 0.316 µg/ml.
In assay [7] the target is T1, FLAG-tagged human APRIL. In words: ELISA: FLAG-tagged human APRIL captured on anti-FLAG plate, purified antibody titrated.
Assay [8] addresses T1, FLAG-tagged human APRIL. Put plainly: competition ELISA: antibody premixed with FLAG-tagged APRIL, added to coated Fc-BCMA, anti-FLAG HRP. The method, then: (§4) A subset of humanized antibodies described above was selected for further analyses. Again, plasmids encoding the VH and VL constructs were mixed in a 1:3 ratio (32 μg) and transiently expressed by transfection into (8*10⁶) HEK293T human embryonic kidney cells (HEK293T), using Lipofectamine 2000 transfection reagent (Invitrogen) according to the manufacturer's instructions. Supernatants were harvested (10 ml) and antibodies were purified using MabSelect Sure Protein A resin according to the manufacturer's instructions (GE Healthcare). Buffer was exchanged for PBS using Zeba desalting columns (Thermo Scientific). The concentration of purified antibodies was determined based on OD280 (Nanodrop ND-1000). The binding of the purified antibodies to APRIL was established using the above described APRIL ELISA. The blocking capability of the humanized antibodies with BCMA and TACI receptors, was tested in a competition ELISA. In these ELISAs, all incubation steps were followed by a wash step with PBST (PBS with 0.01% Tween 20). Maxisorb 96-wells plates (Nunc) were coated with 0.5 μg/ml Fc-BCMA (R&D Systems) or Fc-TACI (R&D Systems) and incubated overnight at 4° C. Next, humanized antibodies and dilutions thereof were incubated, premixed with FLAG-tagged APRIL, for 1 hour, which was followed by an incubation of 1 hour with anti-FLAG HRP-conjugate (Sigma). Immunoreactivity was visualized with 100 μl TMB Stabilized Chromagen (Invitrogen). Reactions were stopped with 100 μl 0.5 M H2504 and absorbances were measured at 450 and 620 nm. Calculated EC₅₀ and IC₅₀ representing the concentration at which 50% of the total binding signal or blocking is observed are represented in Table 5.
The antibodies were tested for binding, blockade, and stability as described before.

Assay [9] addresses T1, FLAG-tagged human APRIL. In words: FLAG-APRIL ELISA after 10 min at 65 °C, antibody at 1 µg/ml. How it is done: as §1, §2
This is another data set of the same source.

Assay [10] addresses T1, FLAG-tagged human APRIL. In words: FLAG-APRIL ELISA after 10 min at 70 °C, antibody at 1 µg/ml. How it is done:
as §1, §2
This is another data set of the same source.

Assay [11] addresses T1, FLAG-tagged human APRIL. In words: FLAG-APRIL ELISA after 10 min at 65 °C, antibody at 3.16 µg/ml. How it is done:
as §1, §2
This is another data set of the same source.

In assay [12] the target is T1, FLAG-tagged human APRIL. In words: FLAG-APRIL ELISA after 10 min at 70 °C, antibody at 3.16 µg/ml. How it is done: as §1, §2
This is another data set of the same source.

For assay [13], the target named is T1, FLAG-tagged human APRIL. In words: FLAG-APRIL ELISA after 10 min at 65 °C, antibody at 0.316 µg/ml. The method, then: as §1, §2
This is another data set of the same source.

The target of assay [14] is T1, FLAG-tagged human APRIL. In words: FLAG-APRIL ELISA after 10 min at 70 °C, antibody at 0.316 µg/ml. How it is done: as §1, §2
This is another data set of the same source.

Assay [15] addresses T1, FLAG-tagged human APRIL. In words: ELISA: FLAG-tagged human APRIL captured on anti-FLAG plate, purified antibody titrated. The method, then:
as §1
as §4, with “(Sigma).” for “(Sigma). Immunoreactivity was visualized with 100 μl TMB Stabilized Chromagen (Invitrogen). Reactions were stopped with 100 μl 0.5 M H2504 and absorbances were measured at 450 and 620 nm. Calculated EC₅₀ and IC₅₀ representing the concentration at which 50% of the total binding signal or blocking is observed are represented in Table 5.”
This is another data set of the same source.

Where two headings read alike, the source gives them in different places.

B1: VH14_1E.VL15 (antibody, human IgG4, V domains shown)
VH: EVQLVQSGAEVKKPGASVKVSCKASGYTFTSYVMHWVRQAPGQGLEWMGYINPYNDAPKYNEKFKGRVTMTSDTSASTAYMELSSLRSDDTAVYYCARGLGYALYYAMDYWGQGTTVTVSS
VL: DIVMTQSPSTLSASVGDRVTITCKASQNVGNNVAWYQQKPGKAPKLLISSASNRDSGVPSRFSGSGSGTEFTLTISSLQPDDFATYFCQQYNIYPFTFGQGTKLEIK
notes: VH14_1 with Q1E; Rest is human IgG4 (S241P, Kabat) and human kappa; also called 14_1E.15
For B1, the “% residual binding after heat treatment (room temperature = 100%)” value (“% residual binding after heat treatment” below) with FLAG-tagged human APRIL [1] is 39.7%; with FLAG-tagged human APRIL [2] it was 28%; with FLAG-tagged human APRIL [3], 82.3%; with FLAG-tagged human APRIL [4], 78.8%; with FLAG-tagged human APRIL [5], 52%; with FLAG-tagged human APRIL [6], 43.3%. In the assay with FLAG-tagged human APRIL [7], this molecule gave an EC50 of 2.67 nM. For the same molecule, in the assay with FLAG-tagged human APRIL [8], the IC50 is 1.74 nM.

B2: VH12.VL15 (antibody, human IgG4 S228P, kappa, V domains shown)
VH: QVQLVQSGAEVKKPGASVKVSCKASGYTFTSYVMHWVRQAPGQGLEWMGYINPYNDAPKYNEKFKGRVTMTRDTSISTAYMELSRLRSDDTAVYYCARGLGYALYYAMDYWGQGTTVTVSS
VL: DIVMTQSPSTLSASVGDRVTITCKASQNVGNNVAWYQQKPGKAPKLLISSASNRDSGVPSRFSGSGSGTEFTLTISSLQPDDFATYFCQQYNIYPFTFGQGTKLEIKR
notes: Humanized IgG4 (S241P, Kabat) with human kappa, from HEK293T; also called 12.15
Take B2: the “% residual binding after heat treatment” value stood at 49.8% with FLAG-tagged human APRIL [9]; 51.8% with FLAG-tagged human APRIL [10]; 66.4% with FLAG-tagged human APRIL [11]; 50.2% with FLAG-tagged human APRIL [12]; 74.3% with FLAG-tagged human APRIL [13]; 70.3% with FLAG-tagged human APRIL [14]. In addition, the midpoint of the response with FLAG-tagged human APRIL [15], the EC50, lay at 19.8 nM.

B3: VH13.VL15 (antibody, human IgG4 S228P, kappa, V domains shown)
VH: QVQLVQSGAEVKKPGASVKVSCKASGYTFTSYVMHWVRQAPGQGLEWMGYINPYNDAPKYNEKFKGRVTMTRDTSTSTVYMELSSLRSEDTAVYYCARGLGYALYYAMDYWGQGTMVTVSS
VL: DIVMTQSPSTLSASVGDRVTITCKASQNVGNNVAWYQQKPGKAPKLLISSASNRDSGVPSRFSGSGSGTEFTLTISSLQPDDFATYFCQQYNIYPFTFGQGTKLEIKR
notes: Humanized IgG4 (S241P, Kabat) with human kappa, from HEK293T; also called 13.15
With B3, the “% residual binding after heat treatment” value with FLAG-tagged human APRIL [9] came to 44.4%; with FLAG-tagged human APRIL [10], 47.4%; in the assay with FLAG-tagged human APRIL [11], 76.2%; in the assay with FLAG-tagged human APRIL [12] it was 80.5%; with FLAG-tagged human APRIL [13] it was 66.1%; in the assay with FLAG-tagged human APRIL [14], 65%. Also, in the assay with FLAG-tagged human APRIL [15], the EC50 stood at 223 nM.

B4: VH14_1G.VL15 (antibody, human IgG4 S228P, kappa, V domains shown)
VH: QVQLVQSGAEVKKPGASVKVSCKASGYTFTSYVMHWVRQAPGQGLEWMGYINPYNDAPKYNEKFKGKATMTSDTSASTAYMELSSLRSDDTAVYYCARGLGYALYYAMDYWGQGTTVTVSS
VL: DIVMTQSPSTLSASVGDRVTITCKASQNVGNNVAWYQQKPGKAPKLLISSASNRDSGVPSRFSGSGSGTEFTLTISSLQPDDFATYFCQQYNIYPFTFGQGTKLEIKR
notes: VH14_1 with R67K and V68A; Humanized IgG4 (S241P, Kabat) with human kappa; also called 14_1G.15; 14_1 G.15
In the case of B4, the “% residual binding after heat treatment” value with FLAG-tagged human APRIL [1] worked out at 31.3%; in the assay with FLAG-tagged human APRIL [2] it was 16.9%; in the assay with FLAG-tagged human APRIL [3] it was 94.5%; with FLAG-tagged human APRIL [4], 78.2%; with FLAG-tagged human APRIL [5], 34.2%; in the assay with FLAG-tagged human APRIL [6] it was 23.8%. Besides, in the assay with FLAG-tagged human APRIL [7], the EC50 was determined as 0.78 nM. Besides, the IC50 with FLAG-tagged human APRIL [8] amounted to 1.35 nM.
